IC50 data for 29 molecules are collected here from US20090004210A1.

Experiment [1] concerns the target monoclonal antibody (mAb) to detect Aβ42-derived peptide species with free N-terminus (generated in Example 1). Put plainly: competition ELISA: soluble peptide against plate-bound DAEFRH-C-BSA for the biotinylated mAb, FIG. 9.
Experiment [2] shares this target. The experiment can be described thus: competition ELISA: soluble peptide against plate-bound DAEFRH-C-BSA for the biotinylated mAb, FIG. 5.
Experiment [3] shares this target. The experiment can be described thus: competition ELISA: soluble peptide against plate-bound DAEFRH-C-BSA for the biotinylated mAb, FIG. 8. (In general: An ELISA detects its analyte on a solid surface through an enzyme-linked reagent.)
The target is the same in experiment [4]. Put plainly: competition ELISA: soluble peptide against plate-bound DAEFRH-C-BSA for the biotinylated mAb, FIG. 3.
For experiment [5] the target is unchanged. Put plainly: competition ELISA: soluble peptide against plate-bound DAEFRH-C-BSA for the biotinylated mAb, FIG. 2.
The target is the same in experiment [6]. Put plainly: competition ELISA: soluble peptide against plate-bound DAEFRH-C-BSA for the biotinylated mAb, FIG. 7.
For experiment [7] the target is unchanged. The experiment can be described thus: competition ELISA: soluble peptide against plate-bound DAEFRH-C-BSA for the biotinylated mAb, FIG. 4.

As usually defined, the IC50 is the concentration needed to halve the response being measured. Lower therefore signals inhibition by little substance. In the case of Peptide 4062 DKE(Nle)R, the IC50 in experiment [1] was over 0.5 µg/mL. As for Peptide 4063 DKE(Nva)R, the IC50 in experiment [1] is over 0.5 µg/mL. Same read-out and setting: under Peptide 4064 DKE(Cha)R stands over 0.5 µg/mL.

Regarding DWEFRDAC [Peptide 1241 DWEFRDA], the IC50 in experiment [2] is under 0.5 µg/mL. SLEFRFC [Peptide 4033 SLEFRF] came in with a 50% inhibitory concentration (IC50) in experiment [3] of under 0.5 µg/mL. On to DAELRYC [Peptide 4031 DAELRY], for which, in experiment [3], the IC50 is under 0.5 µg/mL. DRELKIC [Peptide 1237 DRELKI] displayed an IC50 in experiment [2] of over 5 µg/mL. GKEFRTC [Peptide 4035 GKEFRT] returned an IC50 in experiment [3] of under 0.5 µg/mL. In experiment [4], SFEFRGC [Peptide 3009 SFEFRG] yielded an IC50 of under 5 µg/mL. With YAEFRGC [Peptide 3005 YAEFRG], in experiment [5], the half-maximal inhibitory concentration (IC50) was over 0.5 µg/mL.

In experiment [5], DKELRIC [Peptide 3001 DKELRI] showed an IC50 of under 0.5 µg/mL. Turning to SWELRQAC [Peptide 4020 SWELRQA], the IC50 in experiment [6] was over 0.5 µg/mL. As to GPEFRWC [Peptide 4034 GPEFRW], the IC50 in experiment [3] was under 0.5 µg/mL. As for DWELRIC [Peptide 3002 DWELRI], the IC50 in experiment [5] was over 0.5 µg/mL. For the molecule DRELRIC [Peptide 1235 DRELRI], the IC50 in experiment [2] was under 0.5 µg/mL.

Regarding DWELRQC [Peptide 4032 DWELRQ], the IC50 in experiment [3] is under 0.5 µg/mL. In experiment [2], EYEFRGC [Peptide 1239 EYEFRG] yielded a concentration for half-maximal inhibition (IC50) of over 0.5 µg/mL. On to SWEFRTC [Peptide 4002 SWEFRT], for which, in experiment [7], the IC50 is under 0.4 µg/mL.

In turn, SQEFRTPC [Peptide 4023 SQEFRTP] came in with an IC50 in experiment [6] of under 0.5 µg/mL. For the molecule DYEFRGC [Peptide 3007 DYEFRG], in experiment [5], the IC50 is under 0.5 µg/mL. The molecule SVEFRYHC [Peptide 4021 SVEFRYH] had an IC50 in experiment [6] of under 0.5 µg/mL. DKELKIC [Peptide 1236 DKELKI] returned an IC50 in experiment [2] of over 5 µg/mL. For the molecule DWEFRDC [Peptide 4025 DWEFRD], in experiment [6], the IC50 was under 0.5 µg/mL.

Regarding AYEFRHC [Peptide 4036 AYEFRH], the IC50 in experiment [3] is over 0.5 µg/mL. SYEFRHHC [Peptide 4022 SYEFRHH] came in with an IC50 in experiment [6] of under 0.5 µg/mL. DKELRC [Peptide 1238 DKELR] displayed an IC50 in experiment [2] of under 0.5 µg/mL. Consider ELEFRGC [Peptide 3008 ELEFRG], for which, in experiment [4], the IC50 was under 5 µg/mL. In experiment [6], SSEFRVSC [Peptide 4024 SSEFRVS] displayed an IC50 of under 0.5 µg/mL.

As for EAEFRGC [Peptide 3006 EAEFRG], the IC50 in experiment [5] is under 0.5 µg/mL.
